From patent US20240270846A1 (published 2024)

biological target: T1, CD3 epsilon homodimer protein (UniProt P07766 23-126); experiment: SPR Biacore T200, CD3e homodimer on chip, antibody analyte;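 note: CD3 epsilon homodimer amine-coupled on CM4 sensor chip, antibodies injected as analyte at 25 °C in HBS-EP+, ratio ≥0.8 taken as binding retained versus unaltered parent antibody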
T1 construct: Construct of the homodimer is not described; also called CD3 (CD3 epsilon)
T1 sequence (P07766 23-126): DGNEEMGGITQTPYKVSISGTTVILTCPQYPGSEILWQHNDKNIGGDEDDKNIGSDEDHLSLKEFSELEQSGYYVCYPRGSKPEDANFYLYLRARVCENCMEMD

Row | Binder | ratio of amounts bound (altered form/GLS3000)
1 | GLS3000 S52Y one-arm antibody (antibody, human IgG1, kappa, L234A L235A, N297A, name in Kabat numbering) light: DIVMTQSPLSLPVTPGEPASISCRSSQSLVHSNRNTYLHWYQQKPGQAPRLLIYKVYNRFSGVPDRFSGSGSGTDFTLKISRVEAEDVGVYYCGQGTQVPYTFGQGTKLEIKRTVAAPSVFIFPPSDEQLKSGTASVVCLLNNFYPREAKVQWKVDNALQSGNSQESVTEQDSKDSTYSLSSTLTLSKADYEKHKVYACEVTHQGLSSPVTKSFNRGEC heavy: QVQLVESGGGVVQPGRSLRLSCAASGFTFSNAWMHWVRQAPGKGLEWVAQIKAKSNNYATYYAESVKGRFTISRDDSKNSLYLQMNSLKTEDTAVYYCRYVHYGAYYGVDAWGQGTTVTVSSASTKGPSVFPLAPSSKSTSGGTAALGCLVKDYFPEPVTVSWNSGALTSGVHTFPAVLQSSGLYSLSSVVTVPSSSLGTQTYICNVNHKPSNTKVDKKVEPKSCDKTHTCPPCPAPEAAGGPSVFLFPPKPKDTLMISRTPEVTCVVVDVSHEDPEVKFNWYVDGVEVHNAKTKPREEQYASTYRVVSVLTVLHQDWLNGKEYKCKVSNKALPAPIEKTISKAKGQPREPQVYTLPPSRCELTKNQVSLSCAVKGFYPSDIAVEWESNGQPENNYKTTPPVLDSDGSFFLVSKLTVDKSRWQQGNVFSCSVMHEALHNHYTQKSLSLSPDYKDDDDK EPKSSDKTHTCPPCPAPELLGGPSVFLFPPKPKDTLMISRTPEVTCVVVDVSHEDPEVKFNWYVDGVEVHNAKTKPREEQYNSTYRVVSVLTVLHQDWLNGKEYKCKVSNKALPAPIEKTISKAKGQPREPQVCTLPPSRDELTKNQVSLWCLVKGFYPSDIAVEWESNGQPENNYKTTPPVLDSDGSFFLYSKLTVDKSRWQQGNVFSCSVMHEALHNRYTQKSLSLSP | 1.12
2 | GLS3000 S56E one-arm antibody (antibody, human IgG1, kappa, L234A L235A, N297A, name in Kabat numbering) light: DIVMTQSPLSLPVTPGEPASISCRSSQSLVHSNRNTYLHWYQQKPGQAPRLLIYKVSNRFEGVPDRFSGSGSGTDFTLKISRVEAEDVGVYYCGQGTQVPYTFGQGTKLEIKRTVAAPSVFIFPPSDEQLKSGTASVVCLLNNFYPREAKVQWKVDNALQSGNSQESVTEQDSKDSTYSLSSTLTLSKADYEKHKVYACEVTHQGLSSPVTKSFNRGEC heavy: QVQLVESGGGVVQPGRSLRLSCAASGFTFSNAWMHWVRQAPGKGLEWVAQIKAKSNNYATYYAESVKGRFTISRDDSKNSLYLQMNSLKTEDTAVYYCRYVHYGAYYGVDAWGQGTTVTVSSASTKGPSVFPLAPSSKSTSGGTAALGCLVKDYFPEPVTVSWNSGALTSGVHTFPAVLQSSGLYSLSSVVTVPSSSLGTQTYICNVNHKPSNTKVDKKVEPKSCDKTHTCPPCPAPEAAGGPSVFLFPPKPKDTLMISRTPEVTCVVVDVSHEDPEVKFNWYVDGVEVHNAKTKPREEQYASTYRVVSVLTVLHQDWLNGKEYKCKVSNKALPAPIEKTISKAKGQPREPQVYTLPPSRCELTKNQVSLSCAVKGFYPSDIAVEWESNGQPENNYKTTPPVLDSDGSFFLVSKLTVDKSRWQQGNVFSCSVMHEALHNHYTQKSLSLSPDYKDDDDK EPKSSDKTHTCPPCPAPELLGGPSVFLFPPKPKDTLMISRTPEVTCVVVDVSHEDPEVKFNWYVDGVEVHNAKTKPREEQYNSTYRVVSVLTVLHQDWLNGKEYKCKVSNKALPAPIEKTISKAKGQPREPQVCTLPPSRDELTKNQVSLWCLVKGFYPSDIAVEWESNGQPENNYKTTPPVLDSDGSFFLYSKLTVDKSRWQQGNVFSCSVMHEALHNRYTQKSLSLSP | 0.71
3 | GLS3000 S56G one-arm antibody (antibody, human IgG1, kappa, L234A L235A, N297A, name in Kabat numbering) light: DIVMTQSPLSLPVTPGEPASISCRSSQSLVHSNRNTYLHWYQQKPGQAPRLLIYKVSNRFGGVPDRFSGSGSGTDFTLKISRVEAEDVGVYYCGQGTQVPYTFGQGTKLEIKRTVAAPSVFIFPPSDEQLKSGTASVVCLLNNFYPREAKVQWKVDNALQSGNSQESVTEQDSKDSTYSLSSTLTLSKADYEKHKVYACEVTHQGLSSPVTKSFNRGEC heavy: QVQLVESGGGVVQPGRSLRLSCAASGFTFSNAWMHWVRQAPGKGLEWVAQIKAKSNNYATYYAESVKGRFTISRDDSKNSLYLQMNSLKTEDTAVYYCRYVHYGAYYGVDAWGQGTTVTVSSASTKGPSVFPLAPSSKSTSGGTAALGCLVKDYFPEPVTVSWNSGALTSGVHTFPAVLQSSGLYSLSSVVTVPSSSLGTQTYICNVNHKPSNTKVDKKVEPKSCDKTHTCPPCPAPEAAGGPSVFLFPPKPKDTLMISRTPEVTCVVVDVSHEDPEVKFNWYVDGVEVHNAKTKPREEQYASTYRVVSVLTVLHQDWLNGKEYKCKVSNKALPAPIEKTISKAKGQPREPQVYTLPPSRCELTKNQVSLSCAVKGFYPSDIAVEWESNGQPENNYKTTPPVLDSDGSFFLVSKLTVDKSRWQQGNVFSCSVMHEALHNHYTQKSLSLSPDYKDDDDK EPKSSDKTHTCPPCPAPELLGGPSVFLFPPKPKDTLMISRTPEVTCVVVDVSHEDPEVKFNWYVDGVEVHNAKTKPREEQYNSTYRVVSVLTVLHQDWLNGKEYKCKVSNKALPAPIEKTISKAKGQPREPQVCTLPPSRDELTKNQVSLWCLVKGFYPSDIAVEWESNGQPENNYKTTPPVLDSDGSFFLYSKLTVDKSRWQQGNVFSCSVMHEALHNRYTQKSLSLSP | 0.92
4 | GLS3000 S56F one-arm antibody (antibody, human IgG1, kappa, L234A L235A, N297A, name in Kabat numbering) light: DIVMTQSPLSLPVTPGEPASISCRSSQSLVHSNRNTYLHWYQQKPGQAPRLLIYKVSNRFFGVPDRFSGSGSGTDFTLKISRVEAEDVGVYYCGQGTQVPYTFGQGTKLEIKRTVAAPSVFIFPPSDEQLKSGTASVVCLLNNFYPREAKVQWKVDNALQSGNSQESVTEQDSKDSTYSLSSTLTLSKADYEKHKVYACEVTHQGLSSPVTKSFNRGEC heavy: QVQLVESGGGVVQPGRSLRLSCAASGFTFSNAWMHWVRQAPGKGLEWVAQIKAKSNNYATYYAESVKGRFTISRDDSKNSLYLQMNSLKTEDTAVYYCRYVHYGAYYGVDAWGQGTTVTVSSASTKGPSVFPLAPSSKSTSGGTAALGCLVKDYFPEPVTVSWNSGALTSGVHTFPAVLQSSGLYSLSSVVTVPSSSLGTQTYICNVNHKPSNTKVDKKVEPKSCDKTHTCPPCPAPEAAGGPSVFLFPPKPKDTLMISRTPEVTCVVVDVSHEDPEVKFNWYVDGVEVHNAKTKPREEQYASTYRVVSVLTVLHQDWLNGKEYKCKVSNKALPAPIEKTISKAKGQPREPQVYTLPPSRCELTKNQVSLSCAVKGFYPSDIAVEWESNGQPENNYKTTPPVLDSDGSFFLVSKLTVDKSRWQQGNVFSCSVMHEALHNHYTQKSLSLSPDYKDDDDK EPKSSDKTHTCPPCPAPELLGGPSVFLFPPKPKDTLMISRTPEVTCVVVDVSHEDPEVKFNWYVDGVEVHNAKTKPREEQYNSTYRVVSVLTVLHQDWLNGKEYKCKVSNKALPAPIEKTISKAKGQPREPQVCTLPPSRDELTKNQVSLWCLVKGFYPSDIAVEWESNGQPENNYKTTPPVLDSDGSFFLYSKLTVDKSRWQQGNVFSCSVMHEALHNRYTQKSLSLSP | 1.32

The next lines start with the values.

Row | ratio of amounts bound (altered form/GLS3000) | Binder
5 | 0.99 | GLS3000 S56I one-arm antibody (antibody, human IgG1, kappa, L234A L235A, N297A, name in Kabat numbering) light: DIVMTQSPLSLPVTPGEPASISCRSSQSLVHSNRNTYLHWYQQKPGQAPRLLIYKVSNRFIGVPDRFSGSGSGTDFTLKISRVEAEDVGVYYCGQGTQVPYTFGQGTKLEIKRTVAAPSVFIFPPSDEQLKSGTASVVCLLNNFYPREAKVQWKVDNALQSGNSQESVTEQDSKDSTYSLSSTLTLSKADYEKHKVYACEVTHQGLSSPVTKSFNRGEC heavy: QVQLVESGGGVVQPGRSLRLSCAASGFTFSNAWMHWVRQAPGKGLEWVAQIKAKSNNYATYYAESVKGRFTISRDDSKNSLYLQMNSLKTEDTAVYYCRYVHYGAYYGVDAWGQGTTVTVSSASTKGPSVFPLAPSSKSTSGGTAALGCLVKDYFPEPVTVSWNSGALTSGVHTFPAVLQSSGLYSLSSVVTVPSSSLGTQTYICNVNHKPSNTKVDKKVEPKSCDKTHTCPPCPAPEAAGGPSVFLFPPKPKDTLMISRTPEVTCVVVDVSHEDPEVKFNWYVDGVEVHNAKTKPREEQYASTYRVVSVLTVLHQDWLNGKEYKCKVSNKALPAPIEKTISKAKGQPREPQVYTLPPSRCELTKNQVSLSCAVKGFYPSDIAVEWESNGQPENNYKTTPPVLDSDGSFFLVSKLTVDKSRWQQGNVFSCSVMHEALHNHYTQKSLSLSPDYKDDDDK EPKSSDKTHTCPPCPAPELLGGPSVFLFPPKPKDTLMISRTPEVTCVVVDVSHEDPEVKFNWYVDGVEVHNAKTKPREEQYNSTYRVVSVLTVLHQDWLNGKEYKCKVSNKALPAPIEKTISKAKGQPREPQVCTLPPSRDELTKNQVSLWCLVKGFYPSDIAVEWESNGQPENNYKTTPPVLDSDGSFFLYSKLTVDKSRWQQGNVFSCSVMHEALHNRYTQKSLSLSP
6 | 1.05 | GLS3000 S56H one-arm antibody (antibody, human IgG1, kappa, L234A L235A, N297A, name in Kabat numbering) light: DIVMTQSPLSLPVTPGEPASISCRSSQSLVHSNRNTYLHWYQQKPGQAPRLLIYKVSNRFHGVPDRFSGSGSGTDFTLKISRVEAEDVGVYYCGQGTQVPYTFGQGTKLEIKRTVAAPSVFIFPPSDEQLKSGTASVVCLLNNFYPREAKVQWKVDNALQSGNSQESVTEQDSKDSTYSLSSTLTLSKADYEKHKVYACEVTHQGLSSPVTKSFNRGEC heavy: QVQLVESGGGVVQPGRSLRLSCAASGFTFSNAWMHWVRQAPGKGLEWVAQIKAKSNNYATYYAESVKGRFTISRDDSKNSLYLQMNSLKTEDTAVYYCRYVHYGAYYGVDAWGQGTTVTVSSASTKGPSVFPLAPSSKSTSGGTAALGCLVKDYFPEPVTVSWNSGALTSGVHTFPAVLQSSGLYSLSSVVTVPSSSLGTQTYICNVNHKPSNTKVDKKVEPKSCDKTHTCPPCPAPEAAGGPSVFLFPPKPKDTLMISRTPEVTCVVVDVSHEDPEVKFNWYVDGVEVHNAKTKPREEQYASTYRVVSVLTVLHQDWLNGKEYKCKVSNKALPAPIEKTISKAKGQPREPQVYTLPPSRCELTKNQVSLSCAVKGFYPSDIAVEWESNGQPENNYKTTPPVLDSDGSFFLVSKLTVDKSRWQQGNVFSCSVMHEALHNHYTQKSLSLSPDYKDDDDK EPKSSDKTHTCPPCPAPELLGGPSVFLFPPKPKDTLMISRTPEVTCVVVDVSHEDPEVKFNWYVDGVEVHNAKTKPREEQYNSTYRVVSVLTVLHQDWLNGKEYKCKVSNKALPAPIEKTISKAKGQPREPQVCTLPPSRDELTKNQVSLWCLVKGFYPSDIAVEWESNGQPENNYKTTPPVLDSDGSFFLYSKLTVDKSRWQQGNVFSCSVMHEALHNRYTQKSLSLSP
